Measured values reported in FireProtDB (doi:10.1016/s0014-5793(99)01395-2).

B1: Endolysin, P03706 (parent)
chain: MVEINNQRKAFLDMLAWSEGTDNGRQKTRNHGYDVIVGGELFTDYSDHPRKLVTLNPKLKSTGAGRYQLLSRWWDAYRKQLGLKDFSPKSQDAVALQQIKERGALPMIDRGDIRQAIDRCSNIWASLPGAGYGQFEHKADSLIAKFKEAGGTVREIDV

Variants of: B1
Details: Escherichia phage lambda, pH 7, Thermal, Fluorescence, phosphate buffer 100 mM, reversible: yes, structure 1AM7, whole UniProt chain shown; for ddG of mutation (higher = less stable) / unfolding free energy: 25 °C

| Variant | ddG of mutation (higher = less stable) [kcal/mol] | unfolding free energy [kcal/mol] | Tm [°C] | change of melting temperature, mutant - wild type (higher = more stable) [°C] | unfolding enthalpy (van 't Hoff) [kcal/mol] |
| --- | --- | --- | --- | --- | --- |
| H31D | 1.6 | 5.5 | 46.1 | -6.2 | 99.8 |
| H48N | 5 | 2.1 | 30.1 | -22.2 | 60.8 |
| H31N H137N | -1.8 | 8.9 |  |  |  |
